This note sets out measurements from patent publication US20120045393A1 (priority 2009, published 2012).

Read-outs that look alike come from different tables or passages of the source. Non-standard residues stand in square brackets, D forms with d. Primed or numbered codes have the meaning given here. DO3A10CM(3) = metal chelator group attached at the N-terminus (X in table rows); DO3A10CM″ = chelating group at the N-terminus (X in the sequence tables); Bpa = N[C@@H](Cc1ccc(C(=O)c2ccccc2)cc1)C(=O)O; d2Nal = N[C@H](Cc1ccc2ccccc2c1)C(=O)O; DO3A10CM = not defined here; Tha = not defined here; azaGly = NNC(=O)O; Sar = CNCC(=O)O

Assay [1] relates to EFO-27 human ovarian cancer cells (LHRH binding sites). The assay can be described thus: Saturation binding of radiolabeled LHRH-II analogs to EFO-27 cells. On the procedure:
Saturation binding of ^125I-LHRH II and the ^177Lu-labeled LHRH II analog ^177Lu-BRU-2666 to EFO-27 cells was carried out to determine the binding affinity, binding capacity (Bmax) and receptor numbers. The data were analyzed for a single binding site using Prizm software.

Another assay deals with EFO-27 cells. The assay can be described thus: Internalization/efflux studies in EFO-27 cells. In kind it is cell-based, human. As for the experimental part: Internalization/Efflux Studies: The internalization and efflux studies were carried out following the general procedure. Basically, ^177Lu-LHRH II or ^125I-LHRH II ([^125I-Tyr^8]BRU-2477) (75 uL, 3.0 μCi/mL) was added to the EFO-27 or PC-3 cells. The cells were incubated for 40 min at 37° C. The unbound radioactivity was washed off (4×). Following addition of fresh medium, the cells were further incubated for up to 2 h. At various time points (15, 30, 60 & 120 min) the distribution of radioactivity (membrane-bound, internalized, and efflux) was determined
The internalization and efflux of several Lu-177 labeled LHRH II analogs in EFO-27 cells have been investigated. Basically, following pre-incubation of cells with ^177Lu-LHRH II samples, the binding buffer containing the ^177Lu was replaced with fresh media without complex. The extent of initial internalization (T=0), the amount of radioactive material that remained internalized and the efflux at 0-120 min were determined. The results are shown in FIGS. 21a-f and 22a-c and in Table 25.

For assay [2], the target named is T1, LHRH binding sites on EFO-27 human ovarian cancer cells (human).
T1 chain: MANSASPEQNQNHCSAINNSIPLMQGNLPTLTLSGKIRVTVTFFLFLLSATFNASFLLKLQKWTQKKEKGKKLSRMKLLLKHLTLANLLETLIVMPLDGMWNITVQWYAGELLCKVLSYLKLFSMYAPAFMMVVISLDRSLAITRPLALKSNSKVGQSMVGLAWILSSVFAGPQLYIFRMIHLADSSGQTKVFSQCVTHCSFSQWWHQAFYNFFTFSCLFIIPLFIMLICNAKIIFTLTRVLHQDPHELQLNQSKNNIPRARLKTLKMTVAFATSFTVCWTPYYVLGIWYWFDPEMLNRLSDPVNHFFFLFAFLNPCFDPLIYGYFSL
The assay can be described thus: competition with [125I-Tyr8]BRU-2477 on EFO-27 cells.

Assay [3] addresses LHRH receptor (LHRH binding sites) on EFO-27 human ovarian cancer cells (human). The assay can be described thus: competition with [125I-Tyr8]BRU-2477, EFO-27 cells.
Assay [4] addresses LHRH binding sites on EFO-27 human ovarian cancer cells (human). The assay can be described thus: competition with [125I-Tyr8]BRU-2477 on EFO-27 cells. This is another data set of the same source.
The target is the same in assay [5]. The assay is described as above. This is another data set of the same source.
Assay [6] deals with LHRH receptor (LHRH binding sites) on EFO-27 human ovarian cancer cells (human). The assay can be described thus: competition with [125I-Tyr8]BRU-2477 for binding to EFO-27 cells.
For assay [7] the target is unchanged. Described as above. This is another data set of the same source.
Assay [8] shares this target. Described as above. This is another data set of the same source.
The target of assay [9] is T1, LHRH binding sites (presumed LHRH …). The assay can be described thus: competition with [125I-Tyr8]BRU-2477 on EFO-27 cells.
Assay [10] shares this target. Described as above.
Assay [11] has the same target. The assay is described as above.
Assay [12] shares this target. The description is as above.
Setting [13] is: saturation binding, single binding site.

By Kd is commonly meant the concentration at which binding is half-saturated. In the case of `N=C(N)NCCC[C@@H](NC(=O)[C@H](Cc1c[nH]cn1)NC(=O)[C@H](CO)NC(=O)[C@H](Cc1c[nH]c2ccccc12)NC(=O)[C@H](Cc1c[nH]cn1)NC(=O)[C@@H]1CCC(=O)N1)C(=O)N[C@@H](Cc1c[nH]c2ccccc12)C(=O)N[C@@H](Cc1ccc(O)c(I)c1)C(=O)N1CCC[C@H]1C(=O)NNC(N)=O` [125I-LHRH II, Darg^6,^125I-Tyr^8,azaGly^10-LHRH-II, reference compound], in assay [1], the receptor numbers is on record as 85×10^6 /cell. In assay [1] (setting [13]), the Kd turned out to be 1.29 µM, the “Max. binding (Bmax)” value came to 141 pmoles/10^6 cells and the Receptors/cell is reported as 85 ×10^6. In assay [1] (single binding site), the affinity, expressed as Kd, was 1.29 µM and the “binding capacity (Bmax)” value worked out at 141 pmoles/million cells. Besides, in the assay with EFO-27 cells (0 h), the “Cell associated activity at 0 h % Efflux” value is recorded as 19%. For the same molecule, the “Cell associated activity at 0 h % Intern” value with EFO-27 cells (0 h, internalized) is on record as 36.7%. Moreover, the “Cell associated activity at 0 h % Memb” value in the assay with EFO-27 cells (0 h, membrane bound) was 44.6%. Besides, in the assay on EFO-27 cells (2 h), the “Cell associated activity at 2 h % Efflux” value was found to be 87.1%. The “Cell associated activity at 2 h % Intern” value in the assay with EFO-27 cells (2 h, internalized) is 4.9%. Further, in the assay on EFO-27 cells (2 h, membrane bound), the “Cell associated activity at 2 h % Memb” value was determined as 3.5%. The initial internalization in the assay with EFO-27 cells (% of total bound (cell-associated) radioactivity, T=0) is listed as 35.6%. In addition, the Bound % in the assay on EFO-27 cells (of added) worked out at 1.20%. The same molecule displayed a Bound in the assay with EFO-27 cells (per well) of 1.87 fmol.

As a reminder, the EC50 is the concentration at which the effect is half-maximal. DO3A10CM-[Sar]YWSH[dR]W[Bpa]P[azaGly]-NH2 (reading uncertain, AA2 Tyr) [BRU-2814]: the EC50 in assay [2] worked out at 2.24 µM.

In the case of XRWSHXWXPX (as printed: DO3A10CM-Dnal2-Arg-Trp-Ser-His-Darg-Trp-Bpa4-Pro-azaGly-NH2) [BRU-2813], the EC50 in assay [3] was found to be 0.33 µM; in assay [4], 0.33 µM; in assay [6] it was 0.33 µM; in assay [7], 0.42 µM; in assay [8], 0.3 µM. The percent more potency than BRU-2666 in assay [5] was found to be 30%.

DO3A10CM-[d2Nal]RWLH[dR]W[Bpa]P[azaGly]-NH2 (reading uncertain, AA4 Leu) [BRU-3113] returned an EC50 in [9] of 1.13 µM.

{DO3A10CM(3)}-GPHWSH[dR]W[Bpa]P[azaGly]-NH2 (AA1 Pro) [BRU-2667] displayed an EC50 in assay [2] of 7.29 µM.

Turning to GGHWSHXWXPX (DO3A10CM-Gly (linker) on N-terminus; AA6 Darg; AA8 Bpa4; AA10 azaGly-NH2, AA1 Gly) [BRU-2795], the EC50 in assay [2] is 1.37 µM.

With DO3A10CM-[Sar]HWSH[dR]WP[azaGly]-NH2 (not fully specified; reading uncertain) [BRU-2767], in assay [10], the EC50 came out at 10 µM.

The molecule DO3A10CM-[d2Nal]RWWH[dR]W[Bpa]P[azaGly]-NH2 (reading uncertain, AA4 Trp) [BRU-3114] had an EC50 in [9] of 11.5 µM. That is a double-digit micromolar value.

Consider XHWSHXWXPX (as printed: DO3A10CM-Dnal2-His-Trp-Ser-His-Darg-Trp-Bpa4-Pro-azaGly-NH2) [BRU-2666], for which the 50% effective concentration (EC50) in assay [3] was determined as 0.47 µM; in assay [4], 0.47 µM; in assay [5] it was 2.6 µM; in assay [8], 0.39 µM. In assay [5], this molecule gave a times more potent than the Sar1 analog (BRU-2443) of 2 times.

In assay [11], DO3A10CM-[d2Nal]RLSH[dR]W[Bpa]P[azaGly]-NH2 (reading uncertain, AA3 Leu) [BRU-3108] showed an EC50 of 0.56 µM.

With DO3A10CM-[d2Nal]RWSL[dR]W[Bpa]P[azaGly]-NH2 (reading uncertain, AA5 Leu) [BRU-3029], the EC50 in assay [12] was 1.21 µM.

As to XFWSHXWXPX (DO3A10CM on N-terminus; AA1 Sar; AA6 Darg; AA8 Bpa4; AA10 azaGly-NH2, AA2 Phe) [BRU-2738], a half-maximal response in assay [2] (EC50) required 1.22 µM.

Turning to {DO3A10CM(3)}-[Sar]HWSY[dR]L[Bpa]P[azaGly]-NH2 (AA5 Tyr, AA7 Leu) [BRU-2670], in assay [12], the concentration giving a half-maximal response (EC50) is 8.84 µM.

In the case of FHWSHXWXPX (DO3A10CM on N-terminus; AA6 Darg; AA8 Bpa4; AA10 azaGly-NH2, AA1 Phe) [BRU-2735], the EC50 in assay [2] was 1.14 µM. This counts as single-digit micromolar.

DO3A10CM-[Sar]HWSH[dR]WRP[azaGly]-NH2 (reading uncertain, AA8 Arg) [BRU-2723] displayed an EC50 in assay [10] of 2.83 µM.

For the molecule {DO3A10CM″}-[Sar]HWSH[dR]WHP[azaGly]-NH2 (AA8 His) [BRU-2763], a half-maximal response in assay [10] (EC50) required 13.6 µM.

As for DO3A10CM-[Sar]HWSH[dR]WFP[azaGly]-NH2 (reading uncertain, AA8 Phe) [BRU-2730], a half-maximal effect in assay [10] (EC50) was put at 12.9 µM.

On to XRRSHXWXPX (DO3A10CM on N-terminus; AA1 Dnal2; AA6 Darg; AA8 Bpa4; AA10 azaGly-NH2, AA3 Arg) [BRU-3111], for which the EC50 in assay [11] came to 0.25 µM.

As to {DO3A10CM″}-[Sar]WS[Tha][dR]W[Bpa]P[azaGly]-NH2 (reading uncertain) [BRU-2740], the EC50 in [12] was 5.53 µM.

In [2], RRWSHXWXPX (DO3A10CM on N-terminus; AA6 Darg; AA8 Bpa4; AA10 azaGly-NH2, AA1 Arg, AA2 Arg) [BRU-3050] had an EC50 of 0.31 µM.

In assay [9], DO3A10CM-[d2Nal]RWMH[dR]W[Bpa]P[azaGly]-NH2 (reading uncertain, AA4 Met) [BRU-2964] had an EC50 of 0.22 µM. This lies in the sub-micromolar range.

In the case of GHWSHXWXPX (DO3A10CM on N-terminus; AA6 Darg; AA8 Bpa4; AA10 azaGly-NH2, AA1 Gly) [BRU-2733], the EC50 in assay [2] amounted to 1.18 µM.

In assay [9], XRWNHXWXPX (DO3A10CM on N-terminus; AA1 Dnal2; AA6 Darg; AA8 Bpa4; AA10 azaGly-NH2, AA4 Asn) [BRU-2956] came in with an EC50 of 0.28 µM.

With {DO3A10CM(3)}-[Sar]HWSY[dR]W[Bpa]P[azaGly]-NH2 (AA5 Tyr) [BRU-2668], in [12], the EC50 worked out at 3.47 µM. That is a single-digit micromolar value.

Take DO3A10CM-[d2Nal]RWDH[dR]W[Bpa]P[azaGly]-NH2 (reading uncertain, AA4 Asp) [BRU-2954]: the EC50 in assay [9] worked out at 4.2 µM.

In the case of XRFSHXWXPX (DO3A10CM on N-terminus; AA1 Dnal2; AA6 Darg; AA8 Bpa4; AA10 azaGly-NH2, AA3 Phe) [BRU-3106], the EC50 in assay [11] turned out to be 0.43 µM. In other words, the sub-micromolar range.

Consider DO3A10CM-[d2Nal]RWSA[dR]W[Bpa]P[azaGly]-NH2 (reading uncertain, AA5 Ala) [BRU-3028], for which the EC50 in [12] amounted to 1.09 µM.

In the case of DO3A10CM-[Sar]KWSH[dR]W[Bpa]P[azaGly]-NH2 (reading uncertain, AA2 Lys) [BRU-2871], a half-maximal effect in assay [2] (EC50) was put at 10 µM.
